Sequences and labels used below:
B1: Ribonuclease HI, P0A7Y4 (parent)
chain: MLKQVEIFTDGSCLGNPGPGGYGAILRYRGREKTFSAGYTRTTNNRMELMAAIVALEALKEHCEVILSTDSQYVRQGITQWIHNWKKRGWKTADKKPVKNVDLWQRLDAALGQHQIKWEWVKGHAGHPENERCDELARAAAMNPTLEDTGYQVEV

In one data set the parent is B1. As to conditions: Escherichia coli (strain K12); pH 3; 50.1 °C; Thermal; CD; glycine-HCl 10 mM; NaCl 0.1 M; reversible: yes; structure 2RN2; whole UniProt chain shown.
On to H62D, for which the “ddG of mutation (higher = less stable)” value is -0.67 kcal/mol.
Turning to H62R, the “ddG of mutation (higher = less stable)” value came to 0.03 kcal/mol.
Regarding Q80L K117R, the “ddG of mutation (higher = less stable)” value stood at 0.03 kcal/mol.
Still for that read-out and setting: in the case of E119V K60R it was 0.06 kcal/mol.

Still in this data set, the particulars now being: Escherichia coli (strain K12); pH 3; Thermal; CD; glycine-HCl 10 mM; NaCl 0.1 M; reversible: yes; structure 2RN2; whole UniProt chain shown.
For the variant H62D, the Tm turned out to be 52.3 °C; the “change of melting temperature, mutant - wild type (higher = more stable)” value (“change of melting temperature, mutant” below) turned out to be 2.2 °C; the “unfolding enthalpy (van 't Hoff)” value worked out at 118 kcal/mol.
H62R: the Tm was determined as 50 °C; the “change of melting temperature, mutant” value was -0.1 °C; the “unfolding enthalpy (van 't Hoff)” value turned out to be 114 kcal/mol.
Consider Q80L K117R, for which the Tm amounted to 50 °C; the “change of melting temperature, mutant” value is -0.1 °C; the “unfolding enthalpy (van 't Hoff)” value was found to be 104 kcal/mol.
For Q80L, in that order: 51.1 °C, 1 °C and 114 kcal/mol.
For E119V K60R, the Tm came to 49.9 °C; the “change of melting temperature, mutant” value is -0.2 °C; the “unfolding enthalpy (van 't Hoff)” value stood at 109 kcal/mol.

The same data set, now with this note: Escherichia coli (strain K12); pH 5.5; Thermal; CD; Sodium acetate 20 mM; NaCl 0.1 M; reversible: yes; structure 2RN2; whole UniProt chain shown.
H62D: the Tm is 52.1 °C; the “change of melting temperature, mutant” value was -0.6 °C; the “unfolding enthalpy (van 't Hoff)” value worked out at 97.8 kcal/mol.
For H62R, in that order: 54 °C, 1.3 °C and 97.1 kcal/mol.
For Q80L K117R, in that order: 53.5 °C, 0.8 °C and 83.1 kcal/mol.
On the same counts, the results for Q80L are 53.5 °C, 0.8 °C and 94.6 kcal/mol.
In the case of E119V K60R, the Tm was found to be 55 °C; the “change of melting temperature, mutant” value was found to be 2.3 °C; the “unfolding enthalpy (van 't Hoff)” value is 98.6 kcal/mol.

The data set is the same for the next values; noted with them: Escherichia coli (strain K12); pH 5.5; 52.7 °C; Thermal; CD; Sodium acetate 20 mM; NaCl 0.1 M; reversible: yes; structure 2RN2; whole UniProt chain shown.
For H62R, the “ddG of mutation (higher = less stable)” value is -0.36 kcal/mol.
In the case of E119V K60R, the “ddG of mutation (higher = less stable)” value was -0.63 kcal/mol.

Staying with this data set, now noted: Escherichia coli (strain K12); pH 3; 49.8 °C; Thermal; CD; glycine-HCl 10 mM; reversible: yes; structure 2RN2; whole UniProt chain shown.
Turning to Q113P, the “ddG of mutation (higher = less stable)” value is 0.2 kcal/mol.
With K91R D94E, the “ddG of mutation (higher = less stable)” value was found to be 0.6 kcal/mol.
As to K91R D94E K95G, the “ddG of mutation (higher = less stable)” value was -1.2 kcal/mol.
Same read-out and setting: the same measure for G77A: 0.9 kcal/mol.

The same data set, now with this note: Escherichia coli (strain K12); pH 3; Thermal; CD; glycine-HCl 10 mM; reversible: yes; structure 2RN2; whole UniProt chain shown.
Consider Q113P, for which the Tm came out at 49.2 °C; the “change of melting temperature, mutant” value was -0.6 °C; the “unfolding enthalpy (van 't Hoff)” value turned out to be 100 kcal/mol.
For K91R, in that order: 49.8 °C, 0.5 °C and 119 kcal/mol.
D94E: the Tm stood at 49.8 °C; the “change of melting temperature, mutant” value was -1.2 °C; the “unfolding enthalpy (van 't Hoff)” value is 95.9 kcal/mol.
On the same counts, the results for K91R D94E are 47.8 °C, -2 °C and 93.8 kcal/mol.
For the variant K91R D94E K95G, the Tm is 53.8 °C; the “change of melting temperature, mutant” value came out at 4 °C; the “unfolding enthalpy (van 't Hoff)” value amounted to 105 kcal/mol.
For the variant G77A, the melting temperature (Tm) amounted to 46.9 °C and the “change of melting temperature, mutant” value is -2.9 °C.

Still in this data set, the particulars now being: Escherichia coli (strain K12); pH 5.5; 52 °C; Thermal; CD; Sodium acetate 20 mM; reversible: yes; structure 2RN2; whole UniProt chain shown.
As to Q113P, the “ddG of mutation (higher = less stable)” value worked out at 0.6 kcal/mol.

Still in this data set, the particulars now being: Escherichia coli (strain K12); pH 5.5; Thermal; CD; Sodium acetate 20 mM; reversible: yes; structure 2RN2; whole UniProt chain shown.
Q113P: the Tm turned out to be 49.9 °C; the “change of melting temperature, mutant” value is -2.1 °C; the “unfolding enthalpy (van 't Hoff)” value was 81 kcal/mol.
On the same counts, the results for K91R are 52 °C, 0.1 °C and 96.2 kcal/mol.
For D94E, in that order: 52 °C, -1.6 °C and 92.9 kcal/mol.

The same data set, now with this note: Escherichia coli (strain K12); pH 5.5; 49.8 °C; Thermal; CD; Sodium acetate 20 mM; reversible: yes; structure 2RN2; whole UniProt chain shown.
Take K91R: the “ddG of mutation (higher = less stable)” value was determined as 0 kcal/mol.
Take D94E: the “ddG of mutation (higher = less stable)” value was 0.4 kcal/mol.

The same data set, now with this note: Escherichia coli (strain K12); pH 5.5; Thermal; CD; glycine-HCl 10 mM; reversible: yes; structure 2RN2; whole UniProt chain shown.
On to K91R D94E, for which the melting temperature (Tm) came to 50.2 °C; the “change of melting temperature, mutant” value was -1.8 °C; the “unfolding enthalpy (van 't Hoff)” value is 87.5 kcal/mol.
For K91R D94E K95G, the Tm is 57.6 °C; the “change of melting temperature, mutant” value turned out to be 5.6 °C; the “unfolding enthalpy (van 't Hoff)” value was determined as 86.8 kcal/mol.

The same data set, now with this note: Escherichia coli (strain K12); pH 3; Thermal; CD; Gly-HCl buffer 10 mM; NaCl 0.1 M; reversible: yes; structure 2RN2; whole UniProt chain shown.
Consider V74I, for which the “change of melting temperature, mutant” value amounted to 2.4 °C and the “ddG of mutation (higher = less stable)” value is -0.7 kcal/mol.
Regarding V74A, the “change of melting temperature, mutant” value is -7.6 °C and the “ddG of mutation (higher = less stable)” value stood at 2.2 kcal/mol.
Take V74L: the “change of melting temperature, mutant” value was found to be 3.7 °C and the “ddG of mutation (higher = less stable)” value was -1.1 kcal/mol.

The data set is the same for the next values; noted with them: Escherichia coli (strain K12); pH 5.5; Thermal; CD; sodium acetate 20 mM; NaCl 0.1 M; reversible: yes; structure 2RN2; whole UniProt chain shown.
Regarding V74I, the “change of melting temperature, mutant” value stood at 2.1 °C and the “ddG of mutation (higher = less stable)” value is -0.6 kcal/mol.
On the same counts, the results for V74A are -12.7 °C and 3.4 kcal/mol.
In the case of V74L, the “change of melting temperature, mutant” value stood at 3.3 °C and the “ddG of mutation (higher = less stable)” value is -0.9 kcal/mol.

Still in this data set, the particulars now being: Escherichia coli (strain K12); pH 5.5; 25 °C; GdnHCl; CD; glycine-HCl 10 mM; reversible: yes; structure 2RN2; whole UniProt chain shown.
Consider K91R D94E K95G, for which the “ddG of mutation (higher = less stable)” value worked out at 0.01 kcal/mol, the denaturant m value amounted to 4.36 kcal/mol/M, the “denaturant midpoint (higher = more stable)” value was 2.1 M and the unfolding free energy was determined as 9.14 kcal/mol.

The same data set, now with this note: Escherichia coli (strain K12); pH 5.5; 52 °C; Thermal; CD; glycine-HCl 10 mM; reversible: yes; structure 2RN2; whole UniProt chain shown.
With K91R D94E K95G, the “ddG of mutation (higher = less stable)” value was -1.5 kcal/mol.

As usually defined, the Tm is the temperature at which the thermal transition is half complete.

The record behind these values is FireProtDB.
